The target of this assay is Tula virus (TULV) Gn glycoprotein on virions (Tula virus (TULV), strain Moravia). Briefly: cryo-EM structure.

What is called stoichiometry N is the number of molecules, sites or subunits per partner or assembly. “Tula virus (TULV) Gn glycoprotein on virions (natural protein)” gave a stoichiometry N of 4.

The values are drawn from publication PMC4858563.
